# Laboratory results as given in patent US20260263520A1 (OSLO UNIVERSITETSSYKEHUS HF, published 2026).
# Substitutions are numbered along the chain they refer to. Names may count otherwise.
# B1: parental Oslo-2 monoclonal antibody (antibody, V domains shown)
# VH: EVQILETGGGLVKPGGSLRLSCATSGFNFNDYFMNWVRQAPGKGLEWIAQIRNKNYNYATYFAESLEGRFTISRDDSKSSVYLQVNSLRAEDTALYYCTELRYDYWGQGVMVTVSS
# VL: DIVMTQSPFSLAVSEGEMVTINCKSSQSLLSSGNQKNNLAWYQQKPGQSPKLLIYYASTRQSGVPDRFIGSGSGTDFTLTISDVQAEDLADYYCLQHYSSPYTFGAGTKLELK
# notes: also called Oslo-2 antibody; Oslo-2 parental antibody
# B2: Oslo-2 mAb variant Mutant 5 (L:S31M) (antibody, V domains shown)
# VH: B1 VH
# VL: B1 VL with S31M, L112I
# notes: Only variable domains are tied to the molecule; also called Variant 5; variant 5
# B3: Oslo-2 mAb variant Mutant 4 (L:S31W/L:H107W) (antibody, V domains shown)
# VH: B1 VH
# VL: B1 VL with S31W, H97W, L112I
# notes: Only variable domains are tied to the molecule; also called Variant 4; variant 4
# Biological target: antigen derived from p95HER2 (protein sequence …)
# Assay: indirect ELISA, antigen coated at 2.5 ug/mL, antibody in 3-fold dilutions from 3.0 ug/mL, absorbance at 450 nm
# Experimental: Antibody binding was determined by indirect ELISA. A microtitre plate was coated with 50 μL antigen (protein sequence: […]) (SEQ ID NO: 36) at 2.5 μg/mL for 1 hour with shaking at 300 rpm then blocked with 200 μL 1% casein in PBS for 16 hours at 4° C. The plate was washed twice with PBS containing 0.05% Tween-20. In a separate offline microplate, antibody test samples were prepared in duplicate in a 3-fold serial dilution starting at 3.0 ug/mL. 50 μL of each test sample was transferred to the assay plate and incubated for 1 hour with shaking at 300 rpm. The plate was washed four times with PBS containing 0.05% Tween-20. 50 μL of horse radish peroxidase (HRP) labelled anti-human IgG antibody (catalogue number A8792, Sigma) at a dilution of 1:4000 was added to each well and incubated for 1 hour with shaking at 300 rpm. The plate was washed four times with PBS containing 0.05% Tween-20 and twice with water. 100 μL Tetramethylbenzidine (TMB) substrate (catalogue number 10076433, Fisher) was added and incubated for 10 minutes. The reaction was stopped by addition of 50 μL IM HCl and absorbance was measured at 450 nm using a Byonoy plate reader.
row,binding result,Binder
1,binds,B1
2,binds,B2
3,binds,B3
